Legend:
Human whole blood = test: T cell count in whole blood at 24 hrs; type: cell-based; details: Fab-KD-Fab or BYbe 100 nM, Campath 10 μg/ml, in comparison with PBS- and NegCtrl BYbe-treated wells
Method: Human whole blood (Lithium heparin tubes) was taken from one donor (HTA #031219-06) at UCB Pharma Slough, UK according to approved ethical sample collection protocol.
In a Greiner 96-well non-binding microplate, Fab-X and Fab-Y combination 6294-X/4133-Y was added to PBS to give a Fab-KD-Fab concentration of 2000 nM. Similarly, stocks of 4133-6294 BYbe and NegCtrl BYbe were prepared in PBS at 2000 nM. The microplate was incubated for 1 hr at 37° C., 5% CO2. Following the incubation, Fab-KD-Fab and BYbe reagents were then serially diluted in PBS 1 in 5, seven times to produce to form an 8-point dose curve.
12.5 μl of Fab-KD-Fab or BYbe dilution was transferred into Corning Costar 96-well, cell culture treated, U-shaped-bottom microplate (cat no. 07-200-95) and 237.5 μl of whole blood added to each well. Final well concentrations of Fab-KD-Fab or BYbes were 100-0.00128 nM. Campath (clinical grade, diluted from 30 mg/ml stock to 1 mg/ml in PBS, lot number F1002H29) was used as a positive control at a final concentration of 10 μg/ml. Plates were sealed with a gas permeable adhesive seal and plate lids were replaced. […]
Following the incubation with the antibody cocktail, cells were washed twice as outlined above and buffer aspirated to leave the cells in 20 μl residual buffer. […] Cells were analysed live using the Intellicyt iQue Screener PLUS. […]

CD45 ECD = target: T1, CD45 ECD (Homo sapiens, UniProt P08575); test: Mass photometry of mixture of CD45 ECD and BYbe; type: binding; details: for Theoretical mass (kDa): based on observed masses of 62 and 76 kDa
T1 construct: extracellular domain of CD45 (UniProtKB—P08575, residue positions 225-573); TEV cleavage site (C); 10-His tag (C); made in house; host or cells: HEK293
T1 sequence (P08575 225-573): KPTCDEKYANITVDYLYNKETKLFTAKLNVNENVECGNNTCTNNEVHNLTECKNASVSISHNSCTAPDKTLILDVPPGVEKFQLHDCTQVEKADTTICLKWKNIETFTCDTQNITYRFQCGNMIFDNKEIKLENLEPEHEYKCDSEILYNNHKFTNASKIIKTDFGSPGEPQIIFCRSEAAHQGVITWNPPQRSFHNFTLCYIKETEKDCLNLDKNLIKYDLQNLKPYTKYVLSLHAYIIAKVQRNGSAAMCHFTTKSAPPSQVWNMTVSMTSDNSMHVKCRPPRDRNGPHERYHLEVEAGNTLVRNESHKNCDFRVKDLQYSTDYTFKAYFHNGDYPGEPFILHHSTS
Method: Data were acquired on a RefeynOneMP mass photometer (Refeyn Ltd, Oxford, UK) using AcquireMP (Refeyn Ltd, v2.2.1) software and images were processed and analysed using DiscoverMP (v2.3.dev12) software.
Measurements were performed using clean glass coverslips (High Precision coverslips, No. 1.5, 24×50 mm, Marienfeld) mounted with silicon gaskets (CultureWell™ Reusable Gaskets, Grace biolabs) cut in to 2×2 well sections. Protein stocks were diluted directly in Dulbecco's Phosphate-Buffered Saline (DPBS, ThermoFisher). Typical working concentrations of protein complexes were 1-100 nM, depending on the dissociation characteristics of the protein complexes.
The instrument lens was cleaned with Iso-propyl alcohol (IPA), allowed to dry and a drop of Olympus Low Auto Fluorescence Immersion Oil (NC0297589, ThermoFisher) placed on the lens prior to positioning the microscope coverslip with sample in the light stage. To find focus, 15 μl of fresh DPBS was pipetted into a silicone well, the focal position was identified and secured in place with an autofocus system based on total internal reflection for the entire measurement. For each acquisition, 5 μl of diluted protein was introduced into the well, mixed thoroughly (before autofocus stabilization), and movies of 90 s duration recorded. Each sample was measured once, with a new well and buffer used for each measurement. The mixture of CD45 ECD and 4133-6294 BYbe was not pre-incubated and therefore complexing occurred when the 2 proteins were added into the well.

Campath: anti-CD52, clinical grade, indicated by FDA for B-cell Chronic Lymphocytic Leukaemia; positive control [reference compound]
reduction in T cell numbers (Human whole blood): roughly 8 fold

B1: 4133-6294 BYbe: anti-CD45 BYbe (Fab-scFv): 4133 Fab HC-G4S linker-6294 scFv heavy chain paired with 4133 light chain (antibody)
heavy: QEQLVESGGGLVQPEGSLTLTCTASGFSFSGNYYMCWVRQAPGKGLEWIGCLYTGSSGSTYYASWAKGRFTISKTSSTTVTLQMTSLTAADTATYFCARDLGYEIDGYGGLWGQGTLVTVSSGQPKAPSVFPLAPCCGDTPSSTVTLGCLVKGYLPEPVTVTWNSGTLTNGVRTFPSVRQSSGLYSLSSVVSVTSSSQPVTCNVAHPATNTKVDKTVAPSTCSKPGGGGSGGGGSEVQLVESGAELARPGASVKMSCKASGYTFTSYTMHWVKQRPGQCLEWIGYINPSSGYTEYNQKFKDKTTLTADKSSSTAYLQLSSLTSEDSAVYYCARVGDGFYPSWLAYWGQGTLVTVSSGGGGSGGGGSGGGGSGGGGSDIQMTQSPKFLLVSAGDRVTITCKASQSVRNDVAWYQQKPGQSPKLLIFYASKRYTGVPDRFTGSGYGTDFTFTISTVQAEDLAVYFCQQDYSSPTTFGCGTKLEIK
light: AQVLTQTPSPVSAVVGGTVSISCQASQSVYNNNNLSWYQQKPGQPPKLLIYDASKLASGVPSRFKGSGSGTQFTLTISGVQCDDAATYYCLGGYYSSGWYFAFGGGTKVVVKRTPVAPTVLIFPPAADQVATGTVTIVCVANKYFPDVTVTWEVDGTTQTTGIENSKTPQNSADCTYNLSSTLTLTSTQYNSHKEYTCKVTQGTTSVVQSFNRGDC
Observed mass (kDa) (CD45 ECD; 1× (CD45 + BYbe) complex in mixture of CD45 ECD and 4133-6294 BYbe): 136 kDa
Theoretical mass (kDa) (CD45 ECD; 1× (CD45 + BYbe)): 138 kDa
Observed mass (kDa) (CD45 ECD; 2× (CD45 + BYbe) complex in mixture of CD45 ECD and 4133-6294 BYbe): 274 kDa
Theoretical mass (kDa) (CD45 ECD; 2× (CD45 + BYbe)): 276 kDa
Observed mass (kDa) (CD45 ECD; 3× (CD45 + BYbe) complex in mixture of CD45 ECD and 4133-6294 BYbe): 415 kDa
Theoretical mass (kDa) (CD45 ECD; 3× (CD45 + BYbe)): 414 kDa
Observed mass (kDa) (CD45 ECD; 4× (CD45 + BYbe) complex in mixture of CD45 ECD and 4133-6294 BYbe): 555 kDa
Theoretical mass (kDa) (CD45 ECD; 4× (CD45 + BYbe)): 552 kDa
reduction in T cell numbers (Human whole blood): 5 fold
